{
  "source": "paper doi:10.64898/2025.12.26.696629",
  "binders": {"B1": {"name": "PsufR 50-bp (dsDNA)", "DNA 1": "CCGATCAACGGAATTTTGTCACACTGATGTTGTGAAAATCCCGGCGGTCT", "DNA 2": "AGACCGCCGGGATTTTCACAACATCAGTGTGACAAAATTCCGTTGATCGG"}},
  "molecular_target": "T1, SufR6-229-His6 (holo, [4Fe-4S]) (Mycobacterium tuberculosis H37Rv, UniProt O53151 30-253)",
  "T1 sequence": "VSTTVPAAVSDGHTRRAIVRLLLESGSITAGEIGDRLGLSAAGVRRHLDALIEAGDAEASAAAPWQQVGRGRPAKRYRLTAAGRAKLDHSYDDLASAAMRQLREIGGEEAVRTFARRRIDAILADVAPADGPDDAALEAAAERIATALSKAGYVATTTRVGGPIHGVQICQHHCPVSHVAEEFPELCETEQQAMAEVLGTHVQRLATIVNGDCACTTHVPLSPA",
  "test": "MST",
  "data": [
    {"binder": "B1", "values": [
      {"measurement": "Kd", "value": "235 ± 45.8", "unit": "nM"}
    ]}
  ]
}
